According to patent publication US20250333523A1 (Alector, published 2025):

T1: Avi/HisMsIL18BPd (recombinant mouse IL-18BP with Avi and poly-His tags) (mouse, biotinylated with BirA on the Avi tag in some assays)
T1 construct: also called murine IL-18BP; IL-18BP-Avi-His (mouse)
T1 chain: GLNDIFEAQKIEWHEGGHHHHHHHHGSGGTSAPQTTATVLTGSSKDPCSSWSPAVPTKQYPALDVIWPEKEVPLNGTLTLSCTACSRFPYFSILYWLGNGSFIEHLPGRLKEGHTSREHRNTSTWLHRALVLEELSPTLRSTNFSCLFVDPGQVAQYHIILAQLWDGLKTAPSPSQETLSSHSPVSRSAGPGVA

T2: Avi/His-HuIL18BPa (recombinant human IL-18BP isoform A with Avi and poly-His tags) (human, biotinylated with BirA on the Avi tag in some assays)
T2 construct: also called human IL-18BP-Avi-His
T2 chain: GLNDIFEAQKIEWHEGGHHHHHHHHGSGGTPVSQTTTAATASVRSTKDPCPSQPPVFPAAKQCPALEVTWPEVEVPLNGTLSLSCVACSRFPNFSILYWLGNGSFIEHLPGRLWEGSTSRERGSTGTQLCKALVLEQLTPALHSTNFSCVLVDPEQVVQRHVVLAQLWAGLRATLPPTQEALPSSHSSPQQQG

T3: His/Avi-CynoIL18BP (recombinant cynomolgus IL-18BP with His and Avi tags) (cynomolgus monkey)
T3 construct: also called cynomolgus IL-18BP-Avi-His
T3 chain: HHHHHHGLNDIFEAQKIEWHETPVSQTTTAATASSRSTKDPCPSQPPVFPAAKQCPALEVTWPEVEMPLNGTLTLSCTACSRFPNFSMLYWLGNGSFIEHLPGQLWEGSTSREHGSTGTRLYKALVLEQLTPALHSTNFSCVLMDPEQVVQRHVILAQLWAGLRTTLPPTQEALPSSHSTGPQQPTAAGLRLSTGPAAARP

T4: mouse IL-18BPd-human IgG Fc (R&D Systems, Cat. #122-BP-100) (mouse; human, UniProt Q9Z0M9 29-193)
T4 construct: Bought; also called mouse IL-18BPd-Fc Chimera
T4 sequence (looked up): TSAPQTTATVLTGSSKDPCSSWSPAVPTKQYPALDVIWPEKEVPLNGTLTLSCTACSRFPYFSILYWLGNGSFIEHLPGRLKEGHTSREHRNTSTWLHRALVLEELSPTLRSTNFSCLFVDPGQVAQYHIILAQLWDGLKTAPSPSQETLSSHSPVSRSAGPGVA

T5: Avi/HisMsIL18BPd (recombinant mouse IL-18BP with Avi and poly-His tags) (mouse)
T5 sequence (chain, biotinylated with BirA on the Avi tag in some assays): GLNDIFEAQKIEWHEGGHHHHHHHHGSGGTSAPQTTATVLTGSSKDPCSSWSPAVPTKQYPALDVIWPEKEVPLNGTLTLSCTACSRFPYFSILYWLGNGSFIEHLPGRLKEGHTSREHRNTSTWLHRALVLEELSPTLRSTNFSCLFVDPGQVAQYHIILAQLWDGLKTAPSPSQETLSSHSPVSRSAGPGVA


Assays:
[1] = target: T1, Avi/HisMsIL18BPd (recombinant mouse …); test: SPR, qualitative
[2] = target: T2, Avi/His-HuIL18BPa (recombinant human …); test: ELISA, coated IL-18BP
[3] = target: T1, Avi/HisMsIL18BPd (recombinant mouse …); test: ELISA, coated IL-18BP
[4] = target: T3, His/Avi-CynoIL18BP (recombinant …); test: ELISA, coated IL-18BP
[5] = target: T2, Avi/His-HuIL18BPa (recombinant human …); test: cell-based or functional assay
[6] = target: T1, Avi/HisMsIL18BPd (recombinant mouse …); test: cell-based or functional assay
[7] = target: T3, His/Avi-CynoIL18BP (recombinant …); test: cell-based or functional assay
[8] = target: T2, Avi/His-HuIL18BPa (recombinant human …); test: blocking ELISA, competitor human IL-18
[9] = target: T4, mouse IL-18BPd-human IgG Fc (R&D …); test: blocking ELISA, competitor mouse IL-18
[10] = target: T3, His/Avi-CynoIL18BP (recombinant …); test: blocking ELISA, competitor rhesus IL-18
[11] = target: T2, Avi/His-HuIL18BPa (recombinant human …); test: SPR Biacore T200, IgG captured on Protein A/G
[12] = target: T3, His/Avi-CynoIL18BP (recombinant …); test: SPR Biacore T200, IgG captured on Protein A/G
[13] = target: T5, Avi/HisMsIL18BPd (recombinant mouse IL-18BP with Avi and poly-His tags) (mouse); test: ELISA, coated IL-18BP
[14] = target: T5, Avi/HisMsIL18BPd (recombinant mouse IL-18BP with Avi and poly-His tags) (mouse); test: cell-based or functional assay
[15] = target: T2, Avi/His-HuIL18BPa (recombinant human …); test: SPR Carterra LSA, IgG immobilized
[16] = target: T3, His/Avi-CynoIL18BP (recombinant …); test: SPR Carterra LSA, IgG immobilized

Binder | binding result [1] | ELISA binding ratio (fold-change over background) [2] | ELISA binding ratio (fold-change over background) [3] | ELISA binding ratio (fold-change over background) [4] | EC50 of IFNγ release, human PBMC [5] | Fold change of IFNγ at 10 µg/ml vs baseline, human PBMC [5] | Fold change of IFNγ at 10 µg/ml vs baseline, mouse splenocytes [6] | % of Max Gamma, human NK cells [7] | EC50 of IFNγ release, human NK cells [7] | blocking ELISA signal normalized to isotype control (=1) [8] | blocking ELISA signal normalized to isotype control (=1) [9] | blocking ELISA signal normalized to isotype control (=1) [10] | EC50 of IFNγ release, mouse splenocytes [6] | Kd [11] | Kd [12] | ELISA binding ratio (fold-change over background) (fold over background) [13] | Fold change of IFNγ at 10 µg/ml vs baseline, mouse splenocytes [14] | Kd [15] | Kd [16]
anti-IL18BP antibody BP-06 (antibody, human IgG1, V domains shown) VH: QIQLQQSGPELVKPGASVKISCKASGYTFTDYYLNWVKQTPGQGLEWIGWIYPGSGNTKYTEKFKDKASLTVDTSSNTAYMQLSSLTSDDTAVYFCARRGVAWFAYWGQGTLVTVSA VL: DIKMTQSPSSIYASLGERVTITCKASQDINSYLSWFQQKPGKSPKTLIHRANRLVDGVPSRFSGSGSGQDYSLTISSLEYEDMGIYYCLQHDDFPPTFGAGTNLELK | no binding | 42.1 fold over background | 1.2 fold over background | 44.3 fold over background | 1.23 nM | 10.9 fold | 1.11 fold | 75.8% | 8.07 nM | 0.174 ratio to isotype control | 0.971 ratio to isotype control | 0.378 ratio to isotype control | – | – | – | – | – | – | –
anti-IL18BP antibody BP-11 (antibody, human IgG1, V domains shown) VH: QVQLQQSGAELAKPGASVKMSCKASGYTFTNYWMHWVKQRPGQGLEWIGHIDPSTGYTEYNQKFKDKATLTADKSSSTAYMQLSSLTSEDSAVYYCARGLGGLFGYWGQGTLVTVSA VL: DIQMTQSPSSLSASLGGKVTITCKASQDINKFIAWYQHKPGKGPRLLIHHTSTLMPGIPSRFSGSGSGREYSFSISNLEPEDIATYYCLQYDNLLWTFGGGTKLEIR | – | 44.4 fold over background | 43.6 fold over background | 47.6 fold over background | 4.25 nM | 9.72 fold | 2.75 fold | 100% | 37.1 nM | 0.089 ratio to isotype control | 0.14 ratio to isotype control | 0.49 ratio to isotype control | 7 nM | 2.9 nM | 1 nM | – | – | – | –
anti-IL18BP antibody BP-08 (antibody, human IgG1, V domains shown) VH: QVQLQQPGAELVKPGASVKLSCKVSGYTFTSYWMHWVKQRPGQGLEWIGMIDPNSDSSRYNEKFKNRATLTADKSSSTAFMQFSSLTSEDSAVYYCARSRLGQDYWGQGTTLTVSS VL: DIVMTQSHKFMSTSVGDRVSITCKASQDVSTAVAWYQQKPGQSPKLLIYWASTRHTGVPDRFTGSESGTDYTLIISSVQAEDLALYYCQQHFSTPYTFGGGTKLEIK | – | 38.8 fold over background | – | 41.5 fold over background | 2.01 nM | 5.19 fold | – | 58.4% | 19.2 nM | 0.133 ratio to isotype control | – | 0.478 ratio to isotype control | – | – | – | 35 | 0.75 fold | 6.9 nM | 41.4 nM
